Test results: patent publication US20220204580A1 (AstraZeneca / MedImmune, published 2022)
Numbered stars: 1 amine (or outer) side, 2 acyl side, 3 side chain; on linkers, the order of the positions; unused ones are H or OH. Bridge positions count the residues as written; N and C are the ends. Square brackets hold non-standard residues; d marks the D form. Side chains are listed from the residue outwards. Ends that are not written are not given here. * marks the point of attachment. C18 diacid = O=C(O)CCCCCCCCCCCCCCCCC(=O)*; γGlu = O=C(O)[C@H](CCC(=O)[*:2])N[*:1]; Aib = CC(C)(N)C(=O)O

T1: human amylin receptor (calcitonin receptor co-expressed with receptor activity modifying protein, RAMP3) (human, UniProt P30988 25-474; O60896 24-148)
T1 sequence (looked up) 1: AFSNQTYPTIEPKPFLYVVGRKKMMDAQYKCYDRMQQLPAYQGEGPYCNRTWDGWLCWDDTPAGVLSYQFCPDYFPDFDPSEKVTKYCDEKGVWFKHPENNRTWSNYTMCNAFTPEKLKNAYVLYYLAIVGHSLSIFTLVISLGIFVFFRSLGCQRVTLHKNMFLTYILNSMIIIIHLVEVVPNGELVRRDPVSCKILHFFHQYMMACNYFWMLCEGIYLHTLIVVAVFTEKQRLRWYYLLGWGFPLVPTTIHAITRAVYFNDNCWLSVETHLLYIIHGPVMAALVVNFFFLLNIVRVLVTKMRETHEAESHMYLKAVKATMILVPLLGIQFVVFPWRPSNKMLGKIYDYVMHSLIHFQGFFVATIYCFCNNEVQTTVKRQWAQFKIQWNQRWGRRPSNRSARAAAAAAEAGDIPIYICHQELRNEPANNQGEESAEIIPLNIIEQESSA
T1 sequence (looked up) 2: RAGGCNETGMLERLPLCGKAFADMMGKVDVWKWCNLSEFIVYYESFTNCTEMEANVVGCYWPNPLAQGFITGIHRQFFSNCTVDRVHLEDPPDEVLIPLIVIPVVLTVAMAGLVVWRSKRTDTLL

T2: human calcitonin receptor (human, UniProt P30988 25-474)
T2 sequence (looked up): T1 sequence (looked up) 1

B1: Peptide 68 (SEQ ID NO: 68) (peptide)
peptide: {C18 diacid-γGlu}-CNTATCATQRLANFLVHSS[Aib]NFGPILPPTRVGSNTY-NH2
modifications: disulfide 1-6
SMILES: CC[C@H](C)[C@H](NC(=O)[C@@H]1CCCN1C(=O)CNC(=O)[C@H](Cc1ccccc1)NC(=O)[C@H](CC(N)=O)NC(=O)C(C)(C)NC(=O)[C@H](CO)NC(=O)[C@H](CO)NC(=O)[C@H](Cc1c[nH]cn1)NC(=O)[C@@H](NC(=O)[C@H](CC(C)C)NC(=O)[C@H](Cc1ccccc1)NC(=O)[C@H](CC(N)=O)NC(=O)[C@H](C)NC(=O)[C@H](CC(C)C)NC(=O)[C@H](CCCNC(=N)N)NC(=O)[C@H](CCC(N)=O)NC(=O)[C@@H](NC(=O)[C@H](C)NC(=O)[C@@H]1CSSC[C@H](NC(=O)CC[C@H](NC(=O)CCCCCCCCCCCCCCCCC(=O)O)C(=O)O)C(=O)N[C@@H](CC(N)=O)C(=O)N[C@@H]([C@@H](C)O)C(=O)N[C@@H](C)C(=O)N[C@@H]([C@@H](C)O)C(=O)N1)[C@@H](C)O)C(C)C)C(=O)N[C@@H](CC(C)C)C(=O)N1CCC[C@H]1C(=O)N1CCC[C@H]1C(=O)N[C@H](C(=O)N[C@@H](CCCNC(=N)N)C(=O)N[C@H](C(=O)NCC(=O)N[C@@H](CO)C(=O)N[C@@H](CC(N)=O)C(=O)N[C@H](C(=O)N[C@@H](Cc1ccc(O)cc1)C(N)=O)[C@@H](C)O)C(C)C)[C@@H](C)O
B2: Peptide 67 (SEQ ID NO: 67) (peptide)
peptide: K([γGlu-γGlu-C18 diacid])CNTATCATQRLANFLVHSS[Aib]NFGPILPPTRVGSNTY-NH2
modifications: disulfide 2-7; N-terminus assumed
SMILES: CC[C@H](C)[C@H](NC(=O)[C@@H]1CCCN1C(=O)CNC(=O)[C@H](Cc1ccccc1)NC(=O)[C@H](CC(N)=O)NC(=O)C(C)(C)NC(=O)[C@H](CO)NC(=O)[C@H](CO)NC(=O)[C@H](Cc1c[nH]cn1)NC(=O)[C@@H](NC(=O)[C@H](CC(C)C)NC(=O)[C@H](Cc1ccccc1)NC(=O)[C@H](CC(N)=O)NC(=O)[C@H](C)NC(=O)[C@H](CC(C)C)NC(=O)[C@H](CCCNC(=N)N)NC(=O)[C@H](CCC(N)=O)NC(=O)[C@@H](NC(=O)[C@H](C)NC(=O)[C@@H]1CSSC[C@H](NC(=O)[C@@H](N)CCCCNC(=O)CC[C@H](NC(=O)CC[C@H](NC(=O)CCCCCCCCCCCCCCCCC(=O)O)C(=O)O)C(=O)O)C(=O)N[C@@H](CC(N)=O)C(=O)N[C@@H]([C@@H](C)O)C(=O)N[C@@H](C)C(=O)N[C@@H]([C@@H](C)O)C(=O)N1)[C@@H](C)O)C(C)C)C(=O)N[C@@H](CC(C)C)C(=O)N1CCC[C@H]1C(=O)N1CCC[C@H]1C(=O)N[C@H](C(=O)N[C@@H](CCCNC(=N)N)C(=O)N[C@H](C(=O)NCC(=O)N[C@@H](CO)C(=O)N[C@@H](CC(N)=O)C(=O)N[C@H](C(=O)N[C@@H](Cc1ccc(O)cc1)C(N)=O)[C@@H](C)O)C(C)C)[C@@H](C)O
B3: Peptide 69 (SEQ ID NO: 69) (peptide)
peptide: K([γGlu-C18 diacid])KCNTATCATQRLANFLVHSS[Aib]NFGPILPPTRVGSNTY-NH2
modifications: disulfide 3-8; N-terminus assumed
SMILES: CC[C@H](C)[C@H](NC(=O)[C@@H]1CCCN1C(=O)CNC(=O)[C@H](Cc1ccccc1)NC(=O)[C@H](CC(N)=O)NC(=O)C(C)(C)NC(=O)[C@H](CO)NC(=O)[C@H](CO)NC(=O)[C@H](Cc1c[nH]cn1)NC(=O)[C@@H](NC(=O)[C@H](CC(C)C)NC(=O)[C@H](Cc1ccccc1)NC(=O)[C@H](CC(N)=O)NC(=O)[C@H](C)NC(=O)[C@H](CC(C)C)NC(=O)[C@H](CCCNC(=N)N)NC(=O)[C@H](CCC(N)=O)NC(=O)[C@@H](NC(=O)[C@H](C)NC(=O)[C@@H]1CSSC[C@H](NC(=O)[C@H](CCCCN)NC(=O)[C@@H](N)CCCCNC(=O)CC[C@H](NC(=O)CCCCCCCCCCCCCCCCC(=O)O)C(=O)O)C(=O)N[C@@H](CC(N)=O)C(=O)N[C@@H]([C@@H](C)O)C(=O)N[C@@H](C)C(=O)N[C@@H]([C@@H](C)O)C(=O)N1)[C@@H](C)O)C(C)C)C(=O)N[C@@H](CC(C)C)C(=O)N1CCC[C@H]1C(=O)N1CCC[C@H]1C(=O)N[C@H](C(=O)N[C@@H](CCCNC(=N)N)C(=O)N[C@H](C(=O)NCC(=O)N[C@@H](CO)C(=O)N[C@@H](CC(N)=O)C(=O)N[C@H](C(=O)N[C@@H](Cc1ccc(O)cc1)C(N)=O)[C@@H](C)O)C(C)C)[C@@H](C)O
B4: Peptide 66 (SEQ ID NO: 66) (peptide)
peptide: K([γGlu-γGlu-C18 diacid])KCNTATCATQRLANFLRHSS[Aib]NFGPILPPTNVGSNTY-NH2
modifications: disulfide 3-8; N-terminus assumed
SMILES: CC[C@H](C)[C@H](NC(=O)[C@@H]1CCCN1C(=O)CNC(=O)[C@H](Cc1ccccc1)NC(=O)[C@H](CC(N)=O)NC(=O)C(C)(C)NC(=O)[C@H](CO)NC(=O)[C@H](CO)NC(=O)[C@H](Cc1c[nH]cn1)NC(=O)[C@H](CCCNC(=N)N)NC(=O)[C@H](CC(C)C)NC(=O)[C@H](Cc1ccccc1)NC(=O)[C@H](CC(N)=O)NC(=O)[C@H](C)NC(=O)[C@H](CC(C)C)NC(=O)[C@H](CCCNC(=N)N)NC(=O)[C@H](CCC(N)=O)NC(=O)[C@@H](NC(=O)[C@H](C)NC(=O)[C@@H]1CSSC[C@H](NC(=O)[C@H](CCCCN)NC(=O)[C@@H](N)CCCCNC(=O)CC[C@H](NC(=O)CC[C@H](NC(=O)CCCCCCCCCCCCCCCCC(=O)O)C(=O)O)C(=O)O)C(=O)N[C@@H](CC(N)=O)C(=O)N[C@@H]([C@@H](C)O)C(=O)N[C@@H](C)C(=O)N[C@@H]([C@@H](C)O)C(=O)N1)[C@@H](C)O)C(=O)N[C@@H](CC(C)C)C(=O)N1CCC[C@H]1C(=O)N1CCC[C@H]1C(=O)N[C@H](C(=O)N[C@@H](CC(N)=O)C(=O)N[C@H](C(=O)NCC(=O)N[C@@H](CO)C(=O)N[C@@H](CC(N)=O)C(=O)N[C@H](C(=O)N[C@@H](Cc1ccc(O)cc1)C(N)=O)[C@@H](C)O)C(C)C)[C@@H](C)O

How the values were obtained:
[1] = molecular target: T1, human amylin receptor (calcitonin …); assay: cell-based or functional assay
[2] = molecular target: T2, human calcitonin receptor; assay: cell-based or functional assay

Binder | EC50 (cAMP production) [1] [pM] | Ratio (EC50 hCTR / EC50 hAMYR3) [1] | EC50 (cAMP production) [2] [pM]
B1 | 192 | 9 | 1770
B2 | 132 | 30 | 4010
B3 | 164 | 10 | 1570
B4 | 418 | 17 | 7010
